Experimental data as given in US20260108607A1 (BEIJING DCTY BIOTECH, published 2026).
Substitutions are numbered along the chain they refer to. Read-outs that look alike come from different tables or passages of the source. One block for each binder: values may come before it.

Columns and labels:
[1] = target: T1, EGFR (wild type) expressed on target cells (UniProt P00533 25-1210, limits assumed); assay: flow cytometry of the subclone supernatant on F98npEGFR cells (Geom mean)
T1 construct: whole, on cells; also called F98npEGFR; U87MG-EGFR

[2] = target: T2, EGFRvIII overexpressed on target cells (UniProt P00533 25-1210); assay: flow cytometry of the subclone supernatant on F98npEGFRvIII cells (Geom mean)
T2 construct: whole, on cells; Same protein on two cell lines: F98npEGFRvIII for flow cytometry, U87MG-EGFRvIII for the killing assays; also called F98npEGFRvIII; U87MG-EGFRvIII

[3] = target: T3, EGFRvIII target antigen (SPR ligand) (UniProt P00533 25-645, limits assumed); assay: SPR; antibody as analyte
T3 construct: also called EGFRvIII antigen

[4] = target: T3, EGFRvIII target antigen (SPR ligand); assay: SPR; antibody as analyte; remark: listed apart in the source

B2: 20-2-55 (antibody, V domains shown)
VH: QIQLQQSGPELVKPGASVKISCKASGYSFTDYYINWVKQKPGQGLEWIGWIYPGSGNTKYNEKFKGKATLTVDTSSSTAYMQLNSLTSEDTAVYFCARSSRCDFWGQGTTLTVSS
VL: DIQMTQSASSFSVSLGDSVTITCKASEDIYNRLAWYQQKPGNTPRLLISGATSLETGVPSRFSGSGSGKDYTLSITSLQTEDVATYYCQQYWSSPLTFGSGTKLELK
notes: also called 136C11E7
binding result [2]: binds
binding result [1]: no binding

B3: 20-2-25 (antibody, V domains shown)
VH: EVQLQQSGAELVRPGALVKLSCKASGFNIKDYYMHWVKQRPEQGLEWIGWIDPENGNTIYDPKFQGKASITADTSSNTAYLQLSSLTSEDTAVYYCARGYLVYWGQGTLVTVSA
VL: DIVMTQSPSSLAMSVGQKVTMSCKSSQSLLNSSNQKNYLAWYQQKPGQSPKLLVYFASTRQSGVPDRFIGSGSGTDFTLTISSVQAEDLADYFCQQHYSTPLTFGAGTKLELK
notes: the antibody in the subclone supernatant, not the CAR m26; also called 70B6F6H11
binding result [2]: binds
binding result [1]: no binding

B4: 84C3G8H7-chimeric-scFv (20-2-28) (scFv, V domains shown)
VH: B3 VH with Y100W, L101F, V102A
VL: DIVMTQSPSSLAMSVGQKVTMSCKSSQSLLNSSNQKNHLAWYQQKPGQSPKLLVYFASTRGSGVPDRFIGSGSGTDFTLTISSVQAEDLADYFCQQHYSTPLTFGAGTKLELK
Kd [3]: 59 nM
koff [3]: 0.00883 s⁻¹
kon [3]: 150000 M⁻¹ s⁻¹

B5: 20-2-19 (antibody, V domains shown)
VH: B3 VH with V102A
VL: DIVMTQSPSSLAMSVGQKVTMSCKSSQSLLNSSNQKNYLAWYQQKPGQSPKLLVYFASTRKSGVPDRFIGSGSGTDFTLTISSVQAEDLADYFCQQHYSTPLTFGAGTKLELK
notes: also called 53H2H7 (recombinantly expressed)
binding result [2]: binds
binding result [1]: no binding

B6: 20-2-16 (antibody, V domains shown)
VH: B3 VH with S69T
VL: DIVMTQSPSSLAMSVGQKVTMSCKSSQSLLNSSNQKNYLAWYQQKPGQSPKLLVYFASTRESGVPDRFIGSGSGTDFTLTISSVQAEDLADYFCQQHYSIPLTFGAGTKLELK
notes: also called 90H3D2
binding result [2]: binds
binding result [1]: no binding

B7: 20-2-31 (antibody, V domains shown)
VH: B3 VH
VL: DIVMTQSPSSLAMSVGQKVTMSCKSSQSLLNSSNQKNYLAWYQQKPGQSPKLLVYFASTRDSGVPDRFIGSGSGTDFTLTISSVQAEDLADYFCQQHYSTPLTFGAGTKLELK
notes: also called 95G10G8E4
binding result [2]: binds
binding result [1]: no binding

B8: 20-2-10 (antibody, V domains shown)
VH: B3 VH with E10D, M34L, V102T
VL: DIVMTQSPSSLAMSVGQKVTMNCKSSQNLLNSSNQKNYLAWFQQKPGQSPKLLVYFASTRYSGVPDRFMGSGSGTDFTLTVSSVQAEDLADYFCQQHYSTPLTFGAGTKLELK
notes: also called 75H11B1
binding result [2]: binds
binding result [1]: no binding

B9: 20-2-34 (antibody, V domains shown)
VH: B3 VH
VL: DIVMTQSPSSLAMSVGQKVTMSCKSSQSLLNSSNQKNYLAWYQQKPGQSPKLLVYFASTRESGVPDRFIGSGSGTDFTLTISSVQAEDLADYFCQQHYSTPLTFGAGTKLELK
notes: the antibody in the subclone supernatant, not the CAR m28; also called 84G9F9
binding result [2]: binds
binding result [1]: no binding

B10: 20-2-22 (antibody, V domains shown)
VH: B3 VH with Y80C, Y100W, L101F, V102A
VL: B8 VL with V3L, N22S, N28S, Y38H, F42Y, Y61Q, M69I, V81I
notes: also called 57D8C3
binding result [2]: binds
binding result [1]: no binding

B11: 20-2-52 (antibody, V domains shown)
VH: QIQLVQSGPELKKPGETVKISCKASGYTFINYGMNWVKQTPGKGLKWMGWINTYTGEPTYADDFKGRFAFSLETSASTAYLQINNLKNEDMATYFCSREEFYSRGAMDYWGQGTSVTVSS
VL: DVLMTQTPLSLPVSLGDQASISCRSSQFIVHSNGNTYLEWYLQKPGQSPKLLIYKISNRFSGVPDRFSGSGSGTDFTLKISRVEAEDLGVYYCFQGSHVPFTFGSGTKLEIK
notes: also called 124A5F2
binding result [2]: binds
binding result [1]: no binding

B12: humanized antibody 28-H3 (84C3G8H7-VH3 + VL1) (scFv)
scFv: QVQLVQSGAEVKKPGASVKVSCKASGFNIKDYYMHWVRQAPGQRLEWIGWIDPENGNTIYDPKFQGRATITADTSASTAYMELSSLRSEDTAVYYCARGWFAYWGQGTLVTVSSGGGGSGGGGSGGGGSGGGGSDIVMTQSPDSLAVSLGERATINCKSSQSLLNSSNQKNHLAWYQQKPGQPPKLLIYFASTRASGVPDRFSGSGSGTDFTLTISSLQAEDVAVYYCQQHYSTPLTFGGGTKLELK
notes: the format in the SPR assay is not clearly stated
Kd [3]: 167 nM
koff [3]: 0.0221 s⁻¹
kon [3]: 132000 M⁻¹ s⁻¹

B20: 20-2-7 (antibody, V domains shown)
VH: QIQLVQSGPELKKPGETVKISCKASGYTFTDYSIHWVKQAPGKGLKWMGWINTETGEPTYADDFKGRFAFSLETSASTAYLQINNLKNEDTATYFCSNYGYDVRGDYWGQGTTLTVSS
VL: EIVLTQSPTTMAASPGENITITCSASSGISSNYLHWYQQKPGFSPELLIYSTSNLASGVPARFSGSGSGTSYSLTIGTMEAEDVATYYCHQGSDIPLTFGAGTRLELK
notes: also called 89C2A11
binding result [2]: binds
binding result [1]: no binding

The next lines start with the values.

binding result [1]: no binding
B1: 20-2-43 (antibody, V domains shown)
VH: DVQLQESGPDLVKPSQSLSLNCTVTGYSITSGYSWHWIRQFPGNKLEWMGYIHYSGSTNYNPPLKSRIFIARDTSKNQFFLQLTSVTTEDTATYYCARGVVSNYAMGNWGQGTSVTVSS
VL: ETTVTQSPASLSMAIGEKVTIRCITNTDIDDDMNWYQQKPGEPPKLLISEGNTLRPGVPSRFSSSGYGTDFVFTIENMLSEDVADYYCLQSDDLPLTFGSGTKLEIK
notes: also called 115A10H4

Kd [3]: 47.5 nM
koff [3]: 0.00665 s⁻¹
kon [3]: 140000 M⁻¹ s⁻¹
B13: humanized antibody 28-H9 (84C3G8H7-VH4 + VL1(PTM)) (scFv)
scFv: B12 scFv with R38K, S77N, A195G
notes: as for B12

Kd [3]: 80.3 nM
koff [3]: 0.00891 s⁻¹
kon [3]: 111000 M⁻¹ s⁻¹
B14: humanized antibody 28-H5 (84C3G8H7-VH4 + VL1) (scFv)
scFv: B12 scFv with R38K, S77N
notes: as for B12

Kd [3]: 154 nM
koff [3]: 0.0206 s⁻¹
kon [3]: 134000 M⁻¹ s⁻¹
B15: humanized antibody 28-H4 (84C3G8H7-VH3 + VL2) (scFv)
scFv: B12 scFv with I188V, Y227F
notes: as for B12

Kd [3]: 77.2 nM
koff [3]: 0.0112 s⁻¹
kon [3]: 146000 M⁻¹ s⁻¹
B16: humanized antibody 28-H7 (84C3G8H7-VH3 + VL1(PTM)) (scFv)
scFv: B12 scFv with A195G
notes: as for B12

Kd [3]: 72.6 nM
koff [3]: 0.0103 s⁻¹
kon [3]: 142000 M⁻¹ s⁻¹
B17: humanized antibody 28-H8 (84C3G8H7-VH3 + VL2(PTM)) (scFv)
scFv: B12 scFv with I188V, A195G, Y227F
notes: as for B12

binding result [1]: no binding
B18: 20-2-37 (antibody, V domains shown)
VH: EVMLVESGGGLVKPGGSLKLSCAASRFTFSNYAMSWVRQTPEKRLEWVATITSGGSYTYYPDSVKGRFTISRDNAKNTLYLQMSSLRSEDTAMYYCARKDYGNYWFAYWGQGTLVTVSA
VL: DVVMTQTPLSLPVSLGDQASISCRSSQSLVHSDGNTYLHWYLQKPGQSPKLLIYKVSNRFSGVPDRFSGSGSGTDFTLKISRVEAEDLGVYFCSQSIHVPWTFGGGTKLEIK
notes: also called 98B10B12

Kd [4]: 49.9 nM
koff [4]: 0.00181 s⁻¹
kon [4]: 36200 M⁻¹ s⁻¹
B19: chimeric-VH + VL of clone 20-2-40-2 (98G2E9) (antibody, V domains shown)
VH: B18 VH with M3L, R26G, N31G
VL: B18 VL with S96T, I97T, H98Q
notes: also called clone #40-2

binding result [2]: binds
binding result [1]: no binding
B21: 20-2-49 (antibody, V domains shown)
VH: QVQLQQSGAELAKPGASVKMSCKASAYTFTTYWMHWVKQRPGQGLEWIGYINPNTAYTEYNQNFKDKATLTADKSSSTAYMQLGSLTSEDSAVYYCARGAYYRTYYAMDYWGQGTSVTVSS
VL: DIVLTQSPASLAVSLGQRATISCKASQSVDYDGDSYMNWYQQKPGQPPKLLIYAASNLESGIPARFSGSGSGTDFTLNIHPVEEEDAATYYCLQSNEDPYTFGGGTRLEIN
notes: also called 121E9D12
